In this experiment the target is tetramethylrhodamine-labeled microtubule (tubulin purified from bovine brain) (bovine) (UniProt Q6B856). The experiment can be described thus: fluorescence microscopy of kinesin-coated beads binding to a single microtubule.

As for “native kinesin purified from bovine brain (complex)”, the average binding frequency worked out at 0.018 μm^−1 s^−1 and the koff turned out to be 0.004 s⁻¹.

What is called koff is the rate constant with which the complex falls apart. Higher therefore signals a short-lived complex.

The values are drawn from paper PMC2171822.
